This note sets out measurements from US20110159588A1 (published 2011).

Sequences and labels used below:
T1: HER4 (human EGF-like receptor 4) ECD fused to hFcγ (human, UniProt Q15303 26-651)
T1 construct: extracellular domain; not shown: human Fc gamma
T1 sequence (looked up): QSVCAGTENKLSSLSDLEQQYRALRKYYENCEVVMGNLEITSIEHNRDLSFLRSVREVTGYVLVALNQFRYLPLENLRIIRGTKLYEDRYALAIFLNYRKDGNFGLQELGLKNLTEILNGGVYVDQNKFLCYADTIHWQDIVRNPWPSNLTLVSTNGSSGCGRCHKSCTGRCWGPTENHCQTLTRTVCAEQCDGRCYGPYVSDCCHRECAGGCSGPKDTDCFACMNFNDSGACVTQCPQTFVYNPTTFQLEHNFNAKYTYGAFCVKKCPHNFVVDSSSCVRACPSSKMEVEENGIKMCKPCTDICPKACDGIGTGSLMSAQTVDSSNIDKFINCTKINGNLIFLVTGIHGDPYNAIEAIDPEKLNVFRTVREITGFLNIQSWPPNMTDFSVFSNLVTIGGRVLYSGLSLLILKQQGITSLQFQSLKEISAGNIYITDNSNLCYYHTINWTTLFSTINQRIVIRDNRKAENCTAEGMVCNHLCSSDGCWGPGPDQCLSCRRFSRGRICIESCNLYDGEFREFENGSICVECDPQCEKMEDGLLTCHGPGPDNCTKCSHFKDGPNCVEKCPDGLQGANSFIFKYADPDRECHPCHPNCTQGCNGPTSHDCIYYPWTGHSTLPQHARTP

B1: recombinant human PDGF-BB (ligand, UniProt P01127 82-190, looked up)
chain: SLGSLTIAEPAMIAECKTRTEVFEISRRLIDRTNANFLVWPPCVEVQRCSGCCNNRNVQCRPTQVQLRPVQVRKIEIVRKKPIFKKATVTLEDHLACKCETVAAARPVT
notes: Bought homodimer
B2: recombinant human PDGF-CC (ligand, UniProt Q9NRA1 235-345, looked up)
chain: VVDLNLLTEEVRLYSCTPRNFSVSIREELKRTDTIFWPGCLLVKRCGGNCACCLHNCNECQCVPSKVTKKYHEVLQLRPKTGVRGLHKSLTDVALEHHEECDCVCRGSTGG
notes: Bought homodimer
B3: TECD-Fc (extracellular domain of TMEFF2 fused to the Fc portion of human immunoglobulin gamma at the carboxy-terminus) (Fc fusion)
chain: FPTSLSDCQTPTGWNCSGYDDRENDLFLCDTNTCKFDGECLRIGDTVTCVCQFKCNNDYVPVCGSNGESYQNECYLRQAACKQQSEILVVSEGSCATDAGSGSGDGVHEGSGETSQKETSTCDICQFGAECDEDAEDVWCVCNIDCSQTNFNPLCASDGKSYDNACQIKEASCQKQEKIEVMSLGRCQDNTTTTTKSEDGHYARTDYAENANKLEESAREHHIPCPEHYNGFCMHGKCEHSINMQEPSCRCDAGYTGQHCEKK
notes: also called TECD-hFc; Fc-tagged TECD; not shown: subc
B4: TECD-FLAG (extracellular domain of TMEFF2 fused to a FLAG tag at the carboxy-terminus) (other)
chain: FPTSLSDCQTPTGWNCSGYDDRENDLFLCDTNTCKFDGECLRIGDTVTCVCQFKCNNDYVPVCGSNGESYQNECYLRQAACKQQSEILVVSEGSCATDAGSGSGDGVHEGSGETSQKETSTCDICQFGAECDEDAEDVWCVCNIDCSQTNFNPLCASDGKSYDNACQIKEASCQKQEKIEVMSLGRCQDNTTTTTKSEDGHYARTDYAENANKLEESAREHHIPCPEHYNGFCMHGKCEHSINMQEPSCRCDAGYTGQHCEKKWRADYKDDDDK
notes: Expressed in mammalian cells, purified from supernatant; also called FLAG-tagged TECD; TMEFF2-ECD
B5: gD-TMEFF2-ΔFS I (gD-tagged TMEFF2 lacking the N-terminal follistatin module FS I) on 293 cells (receptor)
chain: KYALADASLKMADPNRFRGKDLPVLSGRCDICQFGAECDEDAEDVWCVCNIDCSQTNFNPLCASDGKSYDNACQIKEASCQKQEKIEVMSLGRCQDNTTTTTKSEDGHYARTDYAENANKLEESAREHHIPCPEHYNGFCMHGKCEHSINMQEPSCRCDAGYTGQHCEKKDYSVLYVVPGPVRFQYVLIAAVIGTIQIAVICVVVLCITRKCPRSNRIHRQKQNTGHYSSDNTTRASTRLI
notes: Deletion mutant; The true chain lacks the region up to and including FS I

Experiment [1] deals with B3. Put plainly: ELISA, PDGF coat, anti-human Fc-HRP detection. Here is the method:
For the PDGF coat format, plates were coated with 1 μg/ml PDGF-AA, PDGF-AB, PDGF-BB, PDGF-CC, or PDGF-DD. Serially diluted TECD-Fc was added to the plates. Bound TECD-Fc was detected using horseradish peroxidase conjugated goat anti-human Fc (Jackson ImmunoResearch, West Grove, Pa.).
(§1) To confirm that the binding observed is indeed due to the interaction between PDGF-AA and TMEFF2-ECD, we then immobilized the PDGF ligands on the plates, and applied the TMEFF2-ECD fused to a different tag, TECD-Fc, as an analyte.
(In general: ELISA stands for enzyme-linked immunosorbent assay.)

Experiment [2] concerns the target T2, recombinant human soluble PDGF receptor α extracellular domain (PDGF sRα) (human, UniProt P16234 24-528, biotinylated using biotin-X-NHS in the ELISAs (sRα-bio); sites not stated).
T2 construct: extracellular domain; also called sRα-bio; soluble PDGFRα extracellular domain
Put plainly: ELISA, PDGF coat, sRα-bio, streptavidin-HRP detection (FIG. 9B). As for the experimental part:
FIG. 9 TECD-Fc competes with PDGF sRα for PDGF-AA binding. (A) PDGF-AA, but not AB, BB, CC or DD, binds to TECD-Fc. TECD-Fc was applied to wells coated with recombinant human PDGF-AA, AB, BB, CC or DD and detected with HRP-conjugated anti-human Fcγ. (B) sRα binds to all three recombinant human PDGF: AA, AB and BB. Biotinylated recombinant sRα (sRα-bio) was applied to wells coated with recombinant human PDGF-AA, AB, BB, CC or DD and detected with streptavidin-HRP. (C) 10 ng/ml TECD-Fc was mixed with increasing concentrations of sRα-bio and applied to PDGF-AA coated wells. Binding between sRα and PDGF-AA was detected using streptavidin-HRP.
as §1

The target in experiment [3] is B4. Put plainly: ELISA, TECD-FLAG coat, anti-human Fc-HRP detection. As for the experimental part: (§2) For the TMEFF2 coat format, MaxiSorp 96-well microwell plates (Thermo Scientific Nunc, Roskilde, Denmark) were coated with 1 μg/ml TECD-FLAG in 50 mM carbonate buffer, pH 9.6, overnight at 4° C. Plates were washed with PBS, pH 7.4 containing 0.05% polysorbate 20 and blocked with 0.5% bovine serum albumin (BSA), 15 parts per million Proclin 300 in phosphate buffered saline (PBS), pH 7.4 for 1 hour at room temperature. Serially diluted PDGF-AA, PDGF-AB or PDGF-BB in PBS containing 0.5% BSA, 0.05% polysorbate 20, and 15 parts per million Proclin 300 were added to the plates. After a 2-hour incubation, PDGF bound to the plates was detected by incubating biotinylated goat anti-human PDGF-AA or PDGF-AB or PDGF-BB in the wells for 1 hour, followed by horseradish peroxidase conjugated streptavidin (GE Healthcare, Piscataway, N.J.) for 30 min. Bound Fc-fusion protein was detected by adding goat anti-hman Fc-HRP (Jackson ImmunoResearch, West Grove, Pa.). After a final wash, the substrate 3,3′,5,5′-tetramethyl benzidine (Kirkegaard & Perry Laboratories) was added to plates and the reaction was stopped by adding 1 M phosphoric acid. Plates were washed with PBS, pH 7.4, containing 0.05% Tween 20, between steps and all incubation steps were performed at room temperature on an orbital shaker. Absorbance was read at 450 nm on a multiskan Ascent reader (Thermo Scientific, Hudson, N.H.). The titration curves were fitted using a four-parameter nonlinear regression curve-fitting program (KaleidaGraph, Synergy software, Reading, Pa.).
(§3) For testing binding of Fc-fusion proteins or his-tagged proteins to TECD-Flag coated on the plate, horseradish peroxidase conjugated goat anti-human Fc (Jackson ImmunoResearch, West Grove, Pa.) or biotinylated anti-His (Penta-His, Qiagen, Valencia, Calif.) followed by horseradish peroxidase conjugated streptavidin was used for detection. For testing TECD-Flag coat, serially diluted mouse anti-Flag (Sigma, St. Louis, Mo.) was added to the plates followed by horseradish peroxidase conjugated goat anti-mouse Fc (Jackson ImmunoResearch). Serially diluted PDGF-AA was also added to wells coated with goat anti-PDGF for comparison to wells coated with 1 μg/ml TECD-Flag. Bound PDGF-AA was detected as described above.

Experiment [4] addresses T3, EGFR (human epithelial growth factor receptor) ECD fused to hFcγ (human, UniProt P00533 25-645).
T3 construct: extracellular domain; not shown: human Fc gamma
The experiment is described as follows: ELISA, TECD-FLAG coat, anti-human Fc-HRP detection. Here is the method:
as §2, §3

Experiment [5] concerns the target T4, HER2 (human EGF-like receptor 2) ECD fused to hFcγ (human, UniProt P04626 23-652).
T4 construct: extracellular domain; not shown: human Fc gamma
Put plainly: ELISA, TECD-FLAG coat, anti-human Fc-HRP detection. Here is the method:
as §2, §3

Experiment [6] concerns the target T5, HER3 (human EGF-like receptor 3) ECD fused to hFcγ (human, UniProt P21860 20-643).
T5 construct: extracellular domain; not shown: human Fc gamma
Put plainly: ELISA, TECD-FLAG coat, anti-human Fc-HRP detection. Here is the method:
as §2, §3

Experiment [7] deals with T1, HER4 (human EGF-like receptor 4) ECD …. The experiment is described as follows: ELISA, TECD-FLAG coat, anti-human Fc-HRP detection. As for the experimental part:
as §2, §3

In experiment [8] the target is T6, recombinant human PDGF-AA (human, UniProt P04085 87-211, limits assumed).
T6 construct: Bought homodimer
The experiment is described as follows: co-immunoprecipitation with anti-gD mAb from transfected 293 cells, anti-PDGF-A blot. As for the experimental part:
For binding of PDGF ligands to membrane-bound TMEFF2 proteins, 293 cells were transfected with the various TMEFF2 constructs and changed to fresh growth medium containing 5 μg/ml PDGF-AA or AB 48 hours after transfection. After 1 hour of incubation unbound PDGF ligands were washed away with ice cold PBS and cells were lysed in lysis buffer containing 50 mM Tris pH 8.0, 150 mM NaCl, 1 mM EDTA, 1% NP-40, and protease and phosphatase inhibitors, pre-cleared with protein G SEPHAROSE, and immunoprecipitated with anti-TMEFF2, anti-PDGF, or anti-gD antibodies. The immune complexes were dissociated with SDS sample buffer with (reducing condition) or without (non-reducing condition) β-mercaptoethanol and resolved by 4-20% Tris-Glycine SDS PAGE, transferred to nitrocellulose membranes, and detected with the indicated antibodies using enhanced chemiluminescence.
TMEFF2 contains 2 FS modules and an EGF-like domain. To dissect which domain(s) of TMEFF2 is/are involved in its interaction with PDGF-AA, Herpes simplex type 1 glycoprotein D (gD)-epitope tagged deletion mutants of TMEFF2 were made and examined for their ability to bind PDGF-AA when expressed on the surface of 293 cells (FIG. 4). As expected, PDGF-AA co-immunoprecipitated with gD-tagged full-length TMEFF2 by an anti gD monoclonal antibody. […]

T2 sequence (P16234 24-528): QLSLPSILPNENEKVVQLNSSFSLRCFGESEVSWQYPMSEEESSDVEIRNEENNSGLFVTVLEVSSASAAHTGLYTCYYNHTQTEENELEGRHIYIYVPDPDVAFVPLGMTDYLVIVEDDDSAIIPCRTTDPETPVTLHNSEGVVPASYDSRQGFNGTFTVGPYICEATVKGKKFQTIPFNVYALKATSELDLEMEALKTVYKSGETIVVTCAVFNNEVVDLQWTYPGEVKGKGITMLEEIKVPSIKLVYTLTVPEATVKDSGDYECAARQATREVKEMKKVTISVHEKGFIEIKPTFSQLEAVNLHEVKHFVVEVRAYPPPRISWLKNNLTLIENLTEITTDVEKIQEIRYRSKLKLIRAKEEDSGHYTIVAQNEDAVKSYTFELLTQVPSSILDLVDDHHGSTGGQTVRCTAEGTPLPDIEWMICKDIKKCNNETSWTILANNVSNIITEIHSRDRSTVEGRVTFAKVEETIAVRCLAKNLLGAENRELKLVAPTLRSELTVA
T5 sequence (P21860 20-643): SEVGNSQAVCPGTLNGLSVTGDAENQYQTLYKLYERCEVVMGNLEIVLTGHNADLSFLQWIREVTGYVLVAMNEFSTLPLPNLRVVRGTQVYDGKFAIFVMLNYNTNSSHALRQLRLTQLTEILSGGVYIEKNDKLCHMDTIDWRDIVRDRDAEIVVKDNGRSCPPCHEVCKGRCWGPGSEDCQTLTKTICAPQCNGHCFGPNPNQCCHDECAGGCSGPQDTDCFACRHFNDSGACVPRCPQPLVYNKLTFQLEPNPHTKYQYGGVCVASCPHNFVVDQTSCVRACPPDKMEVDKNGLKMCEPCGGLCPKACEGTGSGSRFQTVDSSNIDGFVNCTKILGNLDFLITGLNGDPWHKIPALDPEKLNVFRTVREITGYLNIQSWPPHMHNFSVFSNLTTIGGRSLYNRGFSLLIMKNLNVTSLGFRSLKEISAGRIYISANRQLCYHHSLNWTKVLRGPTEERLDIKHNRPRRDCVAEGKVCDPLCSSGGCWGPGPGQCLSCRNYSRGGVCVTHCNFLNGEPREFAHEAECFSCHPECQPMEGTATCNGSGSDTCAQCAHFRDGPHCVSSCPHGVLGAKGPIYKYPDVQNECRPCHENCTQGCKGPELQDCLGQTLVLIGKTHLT

Consider B1, for which the figures for the binding result in experiment [1] and in experiment [2] were “no binding” and “binds”, respectively.

For B2, in experiment [1], the binding result was “no binding”.

In the case of B3, the binding result in experiment [3] was “no binding”.

Turning to B4, the binding result in experiment [4], in experiment [5], in experiment [6] and in experiment [7] was “no binding” throughout.

On to B5, for which, in experiment [8], the binding result is given as “no binding (tested: 5 µg/ml)”.
